Assay results: the array DNA melting data of Ke et al.

assay: melting temperature; melt of duplexes; settings: sodium 0.0675 M; strand 1 µM

| Substance | Tm [°C] |
| --- | --- |
| CGACGTGCCGTATGTGCTG+CAGCACATTTGGCACGTCG (((((((((..((((((((+))))))))..))))))))) | 55.2 |
| CGACGTGCAGGATGTGCTG+CAGCACATAATGCACGTCG (((((((((..((((((((+))))))))..))))))))) | 55.2 |
| CGACGTGCTTGATGTGCTG+CAGCACATGACGCACGTCG ((((((((.(.((((((((+)))))))).).)))))))) | 46.5 |
| CGACGTGCAATATGTGCTG+CAGCACATAATGCACGTCG (((((((((.(((((((((+))))))))).))))))))) | 54.6 |
| CGACGTGCGACATGTGCTG+CAGCACATAGAGCACGTCG ((((((((...((((((((+))))))))...)))))))) | 56.3 |
| CGACGTGCCACATGTGCTG+CAGCACATGCCGCACGTCG ((((((((..(((((((((+)))))))))..)))))))) | 52 |
| CGACGTGCCCTATGTGCTG+CAGCACATATAGCACGTCG ((((((((..(((((((((+)))))))))..)))))))) | 49.6 |
| CGACGTGCTTCATGTGCTG+CAGCACATACTGCACGTCG ((((((((...((((((((+))))))))...)))))))) | 48.3 |
| CGACGTGCTTCATGTGCTG+CAGCACATTCGGCACGTCG ((((((((...((((((((+))))))))...)))))))) | 48.1 |
| CGACGTGCTCGATGTGCTG+CAGCACATACGGCACGTCG ((((((((...((((((((+))))))))...)))))))) | 50.5 |
| CGACGTGCGGAATGTGCTG+CAGCACATCGTGCACGTCG ((((((((...((((((((+))))))))...)))))))) | 46.7 |
| CGACGTGCTGGATGTGCTG+CAGCACATAAAGCACGTCG (((((((((..((((((((+))))))))..))))))))) | 55.3 |
| CGACGTGCGTTATGTGCTG+CAGCACATTCAGCACGTCG ((((((((...((((((((+))))))))...)))))))) | 52.1 |
| CGACGTGCTTTATGTGCTG+CAGCACATCCCGCACGTCG ((((((((...((((((((+))))))))...)))))))) | 46.8 |
| CGACGTGCAGGATGTGCTG+CAGCACATAGCGCACGTCG ((((((((...((((((((+))))))))...)))))))) | 49.6 |
| CGACGTGCTATATGTGCTG+CAGCACATTACGCACGTCG ((((((((...((((((((+))))))))...)))))))) | 49.3 |
| CGACGTGCTACATGTGCTG+CAGCACATAGAGCACGTCG (((((((((..((((((((+))))))))..))))))))) | 52.5 |
| CGACGTGCGTAATGTGCTG+CAGCACATCATGCACGTCG ((((((((.(.((((((((+)))))))).).)))))))) | 52.3 |
| CGACGTGCAGGATGTGCTG+CAGCACATGAAGCACGTCG ((((((((...((((((((+))))))))...)))))))) | 50.3 |
| CGACGTGCAGTATGTGCTG+CAGCACATACAGCACGTCG ((((((((.((((((((((+)))))))))).)))))))) | 57.4 |
| CGACGTGCTGAATGTGCTG+CAGCACATCCAGCACGTCG ((((((((((.((((((((+)))))))).)))))))))) | 57.6 |
| CGACGTGCCAAATGTGCTG+CAGCACATGGCGCACGTCG ((((((((...((((((((+))))))))...)))))))) | 51.2 |
| CGACGTGCTGTATGTGCTG+CAGCACATGCAGCACGTCG ((((((((((.((((((((+)))))))).)))))))))) | 60.3 |
| CGACGTGCCTAATGTGCTG+CAGCACATTTGGCACGTCG (((((((((.(((((((((+))))))))).))))))))) | 58.7 |

| Substance | Tm [°C] |
| --- | --- |
| CGACGTGCATTATGTGCTG+CAGCACATTCCGCACGTCG ((((((((...((((((((+))))))))...)))))))) | 47.5 |
| CGACGTGCTATATGTGCTG+CAGCACATATTGCACGTCG ((((((((.((((((((((+)))))))))).)))))))) | 56 |
| CGACGTGCACGATGTGCTG+CAGCACATTACGCACGTCG ((((((((...((((((((+))))))))...)))))))) | 46 |
| CGACGTGCACGATGTGCTG+CAGCACATCTTGCACGTCG (((((((((.(((((((((+))))))))).))))))))) | 55.7 |
| CGACGTGCGAGATGTGCTG+CAGCACATCAAGCACGTCG ((((((((..(((((((((+)))))))))..)))))))) | 58.6 |
| CGACGTGCCAGATGTGCTG+CAGCACATCGAGCACGTCG ((((((((..(((((((((+)))))))))..)))))))) | 56.2 |
| CGACGTGCATAATGTGCTG+CAGCACATAAGGCACGTCG ((((((((.(.((((((((+)))))))).).)))))))) | 51.3 |
| CGACGTGCATTATGTGCTG+CAGCACATACTGCACGTCG (((((((((.(((((((((+))))))))).))))))))) | 53.8 |
| CGACGTGCGCAATGTGCTG+CAGCACATTATGCACGTCG ((((((((..(((((((((+)))))))))..)))))))) | 52.6 |
| CGACGTGCGGAATGTGCTG+CAGCACATCGGGCACGTCG ((((((((...((((((((+))))))))...)))))))) | 50 |
| CGACGTGCCCCATGTGCTG+CAGCACATCTTGCACGTCG ((((((((...((((((((+))))))))...)))))))) | 46.7 |
| CGACGTGCATTATGTGCTG+CAGCACATGGTGCACGTCG (((((((((..((((((((+))))))))..))))))))) | 51.8 |
| CGACGTGCGGCATGTGCTG+CAGCACATGCGGCACGTCG ((((((((.((((((((((+)))))))))).)))))))) | 61.7 |
| CGACGTGCTAGATGTGCTG+CAGCACATTCTGCACGTCG ((((((((...((((((((+))))))))...)))))))) | 52.2 |
| CGACGTGCATCATGTGCTG+CAGCACATATCGCACGTCG ((((((((...((((((((+))))))))...)))))))) | 47.4 |
| CGACGTGCCAGATGTGCTG+CAGCACATAGTGCACGTCG ((((((((...((((((((+))))))))...)))))))) | 45.6 |
| CGACGTGCTGGATGTGCTG+CAGCACATGCCGCACGTCG ((((((((.(.((((((((+)))))))).).)))))))) | 53.6 |
| CGACGTGCATAATGTGCTG+CAGCACATGGTGCACGTCG (((((((((..((((((((+))))))))..))))))))) | 52.6 |
| CGACGTGCTCTATGTGCTG+CAGCACATATAGCACGTCG (((((((((.(((((((((+))))))))).))))))))) | 54.3 |
| CGACGTGCGAAATGTGCTG+CAGCACATTATGCACGTCG ((((((((..(((((((((+)))))))))..)))))))) | 53.6 |
| CGACGTGCATGATGTGCTG+CAGCACATTTAGCACGTCG ((((((((...((((((((+))))))))...)))))))) | 49.8 |
| CGACGTGCGTTATGTGCTG+CAGCACATTCTGCACGTCG ((((((((...((((((((+))))))))...)))))))) | 50 |
| CGACGTGCATCATGTGCTG+CAGCACATTGGGCACGTCG ((((((((...((((((((+))))))))...)))))))) | 50 |
| CGACGTGCATGATGTGCTG+CAGCACATTAGGCACGTCG ((((((((.(.((((((((+)))))))).).)))))))) | 54 |

| Substance | Tm [°C] |
| --- | --- |
| CGACGTGCAGAATGTGCTG+CAGCACATCACGCACGTCG ((((((((...((((((((+))))))))...)))))))) | 50.1 |
| CGACGTGCCGGATGTGCTG+CAGCACATTCTGCACGTCG ((((((((.(.((((((((+)))))))).).)))))))) | 52.3 |
| CGACGTGCGATATGTGCTG+CAGCACATTCCGCACGTCG (((((((((..((((((((+))))))))..))))))))) | 53.8 |
| CGACGTGCGACATGTGCTG+CAGCACATAACGCACGTCG (((((((((..((((((((+))))))))..))))))))) | 54.2 |
| CGACGTGCGTTATGTGCTG+CAGCACATAATGCACGTCG ((((((((.((((((((((+)))))))))).)))))))) | 57.4 |
| CGACGTGCTCAATGTGCTG+CAGCACATGCCGCACGTCG ((((((((...((((((((+))))))))...)))))))) | 49 |
| CGACGTGCGTGATGTGCTG+CAGCACATCACGCACGTCG (((((((((((((((((((+))))))))))))))))))) | 66.2 |
| CGACGTGCGAAATGTGCTG+CAGCACATCGAGCACGTCG ((((((((...((((((((+))))))))...)))))))) | 55.9 |
| CGACGTGCTCTATGTGCTG+CAGCACATTAAGCACGTCG (((((((((..((((((((+))))))))..))))))))) | 51.1 |
| CGACGTGCCCCATGTGCTG+CAGCACATTCAGCACGTCG ((((((((...((((((((+))))))))...)))))))) | 47.7 |
| CGACGTGCAGTATGTGCTG+CAGCACATCGAGCACGTCG ((((((((...((((((((+))))))))...)))))))) | 50.1 |
| CGACGTGCTGGATGTGCTG+CAGCACATACAGCACGTCG ((((((((((.((((((((+)))))))).)))))))))) | 61.4 |
| CGACGTGCACTATGTGCTG+CAGCACATAACGCACGTCG ((((((((..(((((((((+)))))))))..)))))))) | 46.2 |
| CGACGTGCAGTATGTGCTG+CAGCACATCGCGCACGTCG ((((((((...((((((((+))))))))...)))))))) | 49.9 |
| CGACGTGCCGCATGTGCTG+CAGCACATAACGCACGTCG ((((((((...((((((((+))))))))...)))))))) | 48.3 |
| CGACGTGCCGCATGTGCTG+CAGCACATGGAGCACGTCG ((((((((..(((((((((+)))))))))..)))))))) | 55.1 |
| CGACGTGCAACATGTGCTG+CAGCACATGCGGCACGTCG ((((((((..(((((((((+)))))))))..)))))))) | 53.5 |
| CGACGTGCCCCATGTGCTG+CAGCACATAGCGCACGTCG ((((((((.(.((((((((+)))))))).).)))))))) | 47.3 |
| CGACGTGCCCAATGTGCTG+CAGCACATTCCGCACGTCG ((((((((..(((((((((+)))))))))..)))))))) | 49.3 |
| CGACGTGCGCAATGTGCTG+CAGCACATCACGCACGTCG (((((((((..((((((((+))))))))..))))))))) | 54 |
| CGACGTGCCTAATGTGCTG+CAGCACATTGTGCACGTCG ((((((((..(((((((((+)))))))))..)))))))) | 49 |
| CGACGTGCCTCATGTGCTG+CAGCACATGCAGCACGTCG ((((((((..(((((((((+)))))))))..)))))))) | 52.8 |
| CGACGTGCCAGATGTGCTG+CAGCACATGGGGCACGTCG (((((((((..((((((((+))))))))..))))))))) | 56.3 |
| CGACGTGCGCAATGTGCTG+CAGCACATACGGCACGTCG ((((((((...((((((((+))))))))...)))))))) | 48.6 |
